According to the supplement of paper PMC7877785:
± gives the uncertainty stated by the source.

Test: self-splicing fitness, log relative to wild type (ln ratio); higher = more splicing; Tetrahymena group I intron in knt gene, E. coli kanamycin selection, DiMSum; sequences stand for … in CUCUCU…GGAGGGAAAAGUUAUCAGGCAUGCACCUGGUAGCUAGUCUUUAAACCAAUAGAUUGCAUCGGUUUAAAAGGCAAGACCGUCAAAUUGCGGGAAAGGGGUCAACAGCCGUUCAGUACCAAGUCUCAGGGGAAACUUUGAGAUGGCCUUGCAAAGGGUAUGGUAAUAAGCUGACGGACAUGGUCCUAACCACGCAGCCAAGUCCUAAGUCAACAGAUCUUCUGUUGAUAUGGAUGCAGUUCACAGACUAAAUGUCGGUCGGGGAAGAUGUAUUCUUCUCAUAAGAUAUAGUCGGACCUCUCCUUAAUGGGAGCUAGCGGAUGAAGUGAUGCAACACUGGAGCCGCUGGGAACUAAUUUGUAUGCGAAAGUAUAUUGAUUAGUUUUGGAGUACUCGUGGUCG
Procedure, shortened: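 A randomised library covering all eight P1ex-region intron nucleotides was built with the intron in the knt kanamycin-resistance gene on pET-22b(+) and held in E. coli BL21(DE3). Cells were grown overnight at 37°C or 30°C on LB agar, with or without 25 μg/mL kanamycin, plus 100 μg/mL carbenicillin, 50 μM IPTG and 0.2% rhamnose, and pooled colonies were amplicon-sequenced on an Illumina HiSeq 2500. DiMSum fitness is the error-weighted combination of wild-type-normalised replicate fold changes, kanamycin versus none.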

Sequence	self-splicing fitness (ln) (30 °C)	self-splicing fitness (ln) (37 °C)
GCACAGCAAUAUUACGCUAC	-3.81 ± 0.37	-2.29 ± 0.25
GCACAGCAAUAUUACGGACG	-1.3 ± 0.14	0.0137 ± 0.14
GCACAGCAAUAUUACGGAGC	-2.16 ± 0.15	-2.1 ± 0.21
GCACAGCAAUAUUACGGCUC	-0.268 ± 0.071	0.523 ± 0.076
GCACAGCAAUAUUACGUAUC	-0.923 ± 0.061	-0.833 ± 0.066
GCACAGCAAUAUUACGUCCC	-0.0609 ± 0.11	-0.44 ± 0.11
GCACAGCAAUAUUACGUGGG	-1.53 ± 0.059	-1.47 ± 0.067
GCACAGCAAUAUUACGUUUA	-1.19 ± 0.066	-0.603 ± 0.066
GCAGAGCAAUAUUACGAAAC	-3.28 ± 0.14	-2.23 ± 0.14
GCAGAGCAAUAUUACGAACG	–	-1.78 ± 0.43
GCAGAGCAAUAUUACGAAGU	-2.88 ± 0.12	-1.03 ± 0.13
GCAGAGCAAUAUUACGACAG	-3.01 ± 0.15	-2.74 ± 0.26
GCAGAGCAAUAUUACGACAU	-3.172 ± 0.023	-2.06 ± 0.037
GCAGAGCAAUAUUACGACUA	-2.45 ± 0.27	-2.12 ± 0.24
GCAGAGCAAUAUUACGACUU	-2.82 ± 0.16	-0.936 ± 0.14
GCAGAGCAAUAUUACGAGAA	–	-1.96 ± 0.32
GCAGAGCAAUAUUACGAGAG	-3 ± 0.47	-1.95 ± 0.32
GCAGAGCAAUAUUACGAGUA	-3.23 ± 0.5	-1.35 ± 0.43
GCAGAGCAAUAUUACGAUCA	-4.02 ± 0.42	-1.94 ± 0.18
GCAGAGCAAUAUUACGCAAG	-3.03 ± 0.16	-2.28 ± 0.17
GCAGAGCAAUAUUACGCCUC	-2.46 ± 0.21	-2.38 ± 0.34
GCAGAGCAAUAUUACGCCUG	–	-1.33 ± 0.47
GCAGAGCAAUAUUACGCGGA	-3.11 ± 0.34	-2.91 ± 0.35
GCAGAGCAAUAUUACGCGGU	-4.68 ± 0.29	-3.16 ± 0.37
GCAGAGCAAUAUUACGGACA	–	-0.844 ± 0.3
GCAGAGCAAUAUUACGGGCC	–	-0.867 ± 0.3

Sequence	self-splicing fitness (ln) (30 °C)	self-splicing fitness (ln) (37 °C)
GCAGAGCAAUAUUACGGUCU	-3.54 ± 0.25	-2.39 ± 0.27
GCAGAGCAAUAUUACGUAGG	-2.17 ± 0.11	-1.7 ± 0.14
GCAGAGCAAUAUUACGUAUC	-2.59 ± 0.33	-2.08 ± 0.41
GCAGAGCAAUAUUACGUCCA	-2 ± 0.25	-2.98 ± 0.4
GCAGAGCAAUAUUACGUCGG	-2.57 ± 0.34	-1.69 ± 0.46
GCAGAGCAAUAUUACGUUAA	-1.87 ± 0.27	-2.64 ± 0.42
GCAUAGCAAUAUUACGAACG	-0.883 ± 0.14	-0.356 ± 0.18
GCAUAGCAAUAUUACGAAUC	-2.12 ± 0.33	-1.55 ± 0.32
GCAUAGCAAUAUUACGAUAC	-1.47 ± 0.13	-0.915 ± 0.14
GCAUAGCAAUAUUACGAUGG	-1.01 ± 0.09	-0.54 ± 0.11
GCAUAGCAAUAUUACGAUUC	-0.8 ± 0.083	-0.436 ± 0.097
GCAUAGCAAUAUUACGCAUU	-2.81 ± 0.26	-0.0868 ± 0.17
GCAUAGCAAUAUUACGCCCA	-2.41 ± 0.19	-0.965 ± 0.16
GCAUAGCAAUAUUACGCGAG	-2.42 ± 0.23	-1.72 ± 0.17
GCAUAGCAAUAUUACGCGUA	-1.43 ± 0.13	-0.403 ± 0.12
GCAUAGCAAUAUUACGCUAC	-3.61 ± 0.34	-2.11 ± 0.27
GCAUAGCAAUAUUACGGAAG	-3.8 ± 0.34	-2.09 ± 0.37
GCAUAGCAAUAUUACGGAAU	-2.21 ± 0.16	-1.84 ± 0.23
GCAUAGCAAUAUUACGGCGG	-2.63 ± 0.19	-2.26 ± 0.37
GCAUAGCAAUAUUACGGGGA	-3.23 ± 0.28	-2.37 ± 0.19
GCAUAGCAAUAUUACGGUAC	-2.07 ± 0.097	-1.47 ± 0.091
GCAUAGCAAUAUUACGGUAU	-2.86 ± 0.16	-1.75 ± 0.12
GCAUAGCAAUAUUACGUAAG	-1.63 ± 0.083	-0.386 ± 0.12
GCAUAGCAAUAUUACGUCGA	-1.63 ± 0.15	-0.979 ± 0.15
GCAUAGCAAUAUUACGUCUG	-1.87 ± 0.068	-0.701 ± 0.072
GCAUAGCAAUAUUACGUGGU	-3.13 ± 0.14	-2.8 ± 0.15

Sequence	self-splicing fitness (ln) (30 °C)	self-splicing fitness (ln) (37 °C)
GCAUAGCAAUAUUACGUGUU	-3.84 ± 0.14	-2.36 ± 0.088
GCAUAGCAAUAUUACGUUCC	–	-2.25 ± 0.31
GCCAAGCAAUAUUACGAACC	-2.03 ± 0.12	-0.423 ± 0.14
GCCAAGCAAUAUUACGAAGG	-2.52 ± 0.13	-2.15 ± 0.22
GCCAAGCAAUAUUACGACCA	-1.48 ± 0.17	-1.36 ± 0.19
GCCAAGCAAUAUUACGAGCU	-1.35 ± 0.12	-1.46 ± 0.15
GCCAAGCAAUAUUACGAGUU	-1.7 ± 0.066	-0.45 ± 0.08
GCCAAGCAAUAUUACGAUAA	-3.09 ± 0.17	-1.6 ± 0.2
GCCAAGCAAUAUUACGAUCG	-2.24 ± 0.22	-2.42 ± 0.22
GCCAAGCAAUAUUACGCAGG	-2.98 ± 0.17	-2.05 ± 0.24
GCCAAGCAAUAUUACGCGAC	-2.35 ± 0.11	-0.858 ± 0.1
GCCAAGCAAUAUUACGCUCG	-3.5 ± 0.2	-1.84 ± 0.15
GCCAAGCAAUAUUACGGAGA	-1.45 ± 0.086	-0.924 ± 0.089
GCCAAGCAAUAUUACGGCCG	-1.48 ± 0.23	-2.11 ± 0.46
GCCAAGCAAUAUUACGGCGA	-1.18 ± 0.093	-0.756 ± 0.095
GCCAAGCAAUAUUACGGCGG	-3.3 ± 0.14	-1.84 ± 0.16
GCCAAGCAAUAUUACGGCGU	-0.74 ± 0.067	-0.453 ± 0.1
GCCAAGCAAUAUUACGGCUA	-1.66 ± 0.17	-1.39 ± 0.15
GCCAAGCAAUAUUACGGGGA	-0.604 ± 0.065	0.0408 ± 0.085
GCCAAGCAAUAUUACGGGUG	-0.544 ± 0.049	-0.591 ± 0.057
GCCAAGCAAUAUUACGGUUC	-2.61 ± 0.16	-0.763 ± 0.12
GCCAAGCAAUAUUACGUCCA	-2.32 ± 0.18	0.44 ± 0.2
GCCAAGCAAUAUUACGUGAU	-0.879 ± 0.053	0.385 ± 0.07
GCCAAGCAAUAUUACGUGUA	-1.41 ± 0.068	-0.64 ± 0.062
GCCAAGCAAUAUUACGUUAC	-2.55 ± 0.12	-2.39 ± 0.18
